System: T1, COc1ccc2c(CC(=O)N3CCC[C@H]3C(=O)N[C@@H](CC(C)C)C(=O)NCC(=O)N[C@@H](CC(C)C)C(=O)N[C@@H](CNc3ccc([N+](=O)[O-])cc3[N+](=O)[O-])C(=O)N[C@@H](C)C(=O)N[C@@H](CCCNC(=N)N)C(N)=O)cc(=O)oc2c1
T1 construct: made in house; host or cells: Sf9 and High Five insect cells
Test: Determination of Km values
Type: biochemical, human
Details: other: MMP-9(MT); 1% DMSO; n = 3; pH 7.5
Description: Determination of Km values. […] Substrate concentrations used were 1–10 µM in a total volume of 100 µL of 0.1 M Hepes pH 7.5 containing 10 mM CaCl2, 0.005% Brij-35 and 1.0% DMSO. […] Initial rate experiments were performed as described above to determine enzyme reaction velocities using a LS 50 Luminescence Spectrometer and the FL WinLab Software Package (Perkin Elmer). The Km and s.d values were calculated with Graph Pad Prism 5 using the Michaelis-Mention equation. […] During these experiments, reactions were monitored for only one minute, and initial reaction velocities were determined from the activity curves.

Chain of Mag-Trypsin activated recombinant MMP-9 (MMP-9(MT)) (Homo sapiens) (chain, as listed by the source): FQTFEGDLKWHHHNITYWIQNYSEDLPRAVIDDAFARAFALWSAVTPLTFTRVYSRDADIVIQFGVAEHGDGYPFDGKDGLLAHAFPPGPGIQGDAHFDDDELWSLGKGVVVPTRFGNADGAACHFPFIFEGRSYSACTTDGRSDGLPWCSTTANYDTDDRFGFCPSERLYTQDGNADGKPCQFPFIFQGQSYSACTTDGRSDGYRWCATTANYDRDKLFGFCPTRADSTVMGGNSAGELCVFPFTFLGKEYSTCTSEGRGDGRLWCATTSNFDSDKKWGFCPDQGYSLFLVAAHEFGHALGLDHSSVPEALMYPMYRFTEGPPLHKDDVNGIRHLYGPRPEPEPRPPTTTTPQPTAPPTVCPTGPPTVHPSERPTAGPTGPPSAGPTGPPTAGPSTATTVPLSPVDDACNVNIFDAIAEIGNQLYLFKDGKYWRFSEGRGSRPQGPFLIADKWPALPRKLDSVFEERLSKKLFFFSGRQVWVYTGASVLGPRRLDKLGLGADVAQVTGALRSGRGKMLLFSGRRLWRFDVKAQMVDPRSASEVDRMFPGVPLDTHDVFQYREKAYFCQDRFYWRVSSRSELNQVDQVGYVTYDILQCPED

Mag-Trypsin activated recombinant MMP-9 (MMP-9(MT)) (Homo sapiens)
Km: 2.7 ± 0.5 µM
